This series deals with the molecule itself. Kind of series: atomic force microscopy.

B1: A3G-H248A/H250A-Myc-His (enzyme, human, UniProt Q9HC16 1-384, looked up)
chain: MKPHFRNTVERMYRDTFSYNFYNRPILSRRNTVWLCYEVKTKGPSRPPLDAKIFRGQVYSELKYHPEMRFFHWFSKWRKLHRDQEYEVTWYISWSPCTKCTRDMATFLAEDPKVTLTIFVARLYYFWDPDYQEALRSLCQKRDGPRATMKIMNYDEFQHCWSKFVYSQRELFEPWNNLPKYYILLHIMLGEILRHSMDPPTFTFNFNNEPWVRGRHETYLCYEVERMHNDTWVLLNQRRGFLCNQAPAKAGFLEGRHAELCFLDVIPFWKLDLDQDYRVTCFTSWSPCFSCAQEMAKFISKNKHVSLCIFTARIYDDQGRCQEGLRTLAEAGAKISIMTYSEFKHCWDTFVDHQGCPFQPWDGLDEHSQDLSGRLRAILQNQEN
In the case of B1, the “stoichiometry N” value was determined as 2.

The values above are taken from publication PMC3030345 (The Journal of Biological Chemistry, 2010).
